We go through 1 molecule from patent US20080299140A1, “Immunogenic Composition and Peptide Sequences for Prevention and Treatment of an Hsv Condition” (priority 2002, published 2008).

The assay addresses HLA-DR(α1*0101,α1*1301) (human). The assay can be described thus: reference IC50 of the tracer peptide in the HLA class II competition assay.

No end group written: not given here.

TERVRLVTRHIYNREE (also: biotinylated when used as tracer) [B1 (21-36)]: the IC50 (in general, the concentration at which inhibition is half-maximal) stood at 276 nM. That is a sub-micromolar value.
